Tests used:
Assay in all cases: PanK enzyme assay (Michaelis-Menten kinetics)
Type in all cases: biochemical, E. coli
Settings in all cases: other: transformation by PanK, 25° C., Tris-HCl pH 7.6, triplicate
[1] = substrate: [H][C@]1(O[C@H]2[C@H](O)[C@@H](O)[C@H](N)C[C@@H]2N)O[C@H](CNC(=O)CCCCSCCNC(=O)CCNC(=O)[C@H](O)C(C)(C)CO)[C@@H](O)[C@H](O)[C@H]1N
Description: (§1) PanK enzyme assay. The E. coli pantothenate kinase (PanK or coaA enzyme) was expressed and purified as previously described. Enzyme activity was measured as described in the literature [Strauss E, Begley T P J Biol Chem, 2002, 277:48205-48209]. This assay couples the production of ADP to the consumption of NADH through the activity of pyruvate kinase and lactic dehydrogenase. The decrease of NADH concentration was monitored at 340 nm. Reactions were performed at 25° C. in an Agilent 8453 UV-Vis spectrophotometer coupled to an Agilent 89090A Peltier temperature controller. Kinetic parameters were determined by fitting the rate data into the Michaelis-Menten equation using Prism 4.0 (GraphPad). Each reaction mixture (500 μL) contained ATP (1.5 mM), NADH (0.3 mM), phosphoenolpyruvate (0.5 mM), MgCl2 (10 mM), KCl (20 mM), pyruvate kinase (5 units), lactic dehydrogenase (5 units), and PanK (5 μg, 278 nM) in Tris-HCl buffer (50 mM, pH 7.6). The reaction was initiated by addition of the desired substrate (10-160 μM). All data points are from triplicate experiments.

[2] = substrate: [H][C@]1(O[C@H]2[C@H](O)[C@@H](O)[C@H](N)C[C@@H]2N)O[C@H](CNC(=O)CCCSCCNC(=O)CCNC(=O)[C@H](O)C(C)(C)CO)[C@@H](O)[C@H](O)[C@H]1N
Description: as §1

[3] = substrate: CC(C)(CO)[C@@H](O)C(=O)NCCC(=O)NCCSCCCCCC(=O)NC[C@H]1O[C@H](O[C@H]2[C@H](O)[C@@H](O)[C@H](N)C[C@@H]2N)[C@H](N)[C@@H](O)[C@@H]1O
Description: as §1

[4] = substrate: [H][C@]1(O[C@H]2[C@H](O)[C@@H](O)[C@H](N)C[C@@H]2N)O[C@H](CNC(=O)CCSCCNC(=O)CCNC(=O)[C@H](O)C(C)(C)CO)[C@@H](O)[C@H](O)[C@H]1N
Description: as §1

B1: E. coli pantothenate kinase (PanK or coaA enzyme) (Escherichia coli K-12) (protein)
chain: MSIKEQTLMTPYLQFDRNQWAALRDSVPMTLSEDEIARLKGINEDLSLEEVAEIYLPLSRLLNFYISSNLRRQAVLEQFLGTNGQRIPYIISIAGSVAVGKSTTARVLQALLSRWPEHRRVELITTDGFLHPNQVLKERGLMKKKGFPESYDMHRLVKFVSDLKSGVPNVTAPVYSHLIYDVIPDGDKTVVQPDILILEGLNVLQSGMDYPHDPHHVFVSDFVDFSIYVDAPEDLLQTWYINRFLKFREGAFTDPDSYFHNYAKLTKEEAIKTAMTLWKEINWLNLKQNILPTRERASLILTKSANHAVEEVRLRK
notes: made in house
In the case of B1, the Km [1] is reported as 230 ± 69 µM, the kcat [1] is reported as 0.52 ± 0.08 s⁻¹ and the kcat/Km [1] is reported as 2300 ± 800 M⁻¹ s⁻¹. For the same protein, the Km [2] was 350 ± 80 µM, the kcat [2] was 0.5 ± 0.05 s⁻¹ and the kcat/Km [2] was 1400 ± 400 M⁻¹ s⁻¹. It also gave a Km [3] of 170 ± 50 µM, a Km [4] of 480 ± 160 µM and a kcat [4] of 0.47 ± 0.05 s⁻¹. It also gave a kcat/Km [4] of 1000 ± 300 M⁻¹ s⁻¹.
